Reference: article PMC7195491 (2020)
Residue numbers refer to the chain shown, from its start. Names and notes keep the numbering of the source. Values belong to the binder of their own block, whether it stands above or below them.

Target: T1, DIP-α (Drosophila melanogaster)
T1 chain: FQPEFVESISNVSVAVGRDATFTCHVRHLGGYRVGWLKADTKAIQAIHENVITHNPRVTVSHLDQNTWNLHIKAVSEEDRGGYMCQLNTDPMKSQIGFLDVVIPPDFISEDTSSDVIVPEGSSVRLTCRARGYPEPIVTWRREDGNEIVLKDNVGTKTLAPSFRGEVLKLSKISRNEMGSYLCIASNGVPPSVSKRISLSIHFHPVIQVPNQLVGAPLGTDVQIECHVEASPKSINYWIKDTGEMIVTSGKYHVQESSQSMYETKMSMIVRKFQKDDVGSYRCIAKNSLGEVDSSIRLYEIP
Test: SPR

Kd: > 300 µM
B1: Dpr11 K31V (domain or fragment)
chain: PYLDGYATSNVTTQIGTHAYLPCRVKQLGNKSVSWIRLRDGHILTVDRAVFIADQRFLAIKQPDKYWTLQIKYVQARDAGSYECQVSTEPVVSARVQLQVVVPRTEILGEPDRYVKAGSNVVLRCIVRGALEPPTFIMWYHGAEQLAADSRRHRTQLDPNLPEASGEGQSTIGSLIIESAKKRDTGNYTCSPSNSPSATVT

Kd: > 500 µM
B2: Dpr11 (domain or fragment)
chain: B1 chain with V91K

Kd: > 300 µM
B3: Dpr11 K31V,E29Q (domain or fragment)
chain: B1 chain with E89Q

Kd: 29.2 µM
B4: Dpr10 V31K Q29E (domain or fragment)
chain: YQRQSVSNNNHNNAEAKPTHAPPSHYPHGHKWNEPYFDLTMPRNITSLVGKSAYLGCRVKHLGNKTVAWIRHRDLHILTVGTYTYTTDQRFQTSYHRDIDEWTLQIKWAQQRDAGVYECQISTEPKRSYSVNLNIVDLIDAETSDIMQQYYNDDAFYIAENRVYQSSNDEFAGMFGPIQTVAVPTATILGGPDLYVDKGSTINLTCIIKFSPEPPTHIFWYHQDKVLSEETSGGRLKFKTIKSEETKSILLIYDADLLHSGKYSCYPSNTEIASIR

Kd: 1.3 µM
B5: Dpr10 (domain or fragment)
chain: B4 chain with E124Q, K126V

Kd: 11.3 µM
B6: Dpr10 V31K (domain or fragment)
chain: B4 chain with E124Q
